Reference: article PMC6393304 (Nucleic Acids Research, 2018)
Where a chain is given by its changes, count along the chain named. Names and notes keep the numbering of the source.

B1: C-terminal bZIP domain of human C/EBPβ (residues 269–344), wild type (domain or fragment)
chain: HMKHSDEYKIRRERNNIAVRKSRDKAKMRNLETQHKVLELTAENERLQKKVEQLSRELSTLRNLFKQLPEPLLASSGH
B2: C-terminal bZIP domain of human C/EBPβ (residues 269–344), V285A variant (domain or fragment)
chain: B1 chain with V19A

Biological target: the molecule itself
Assay: crystal structure

| Protein | binding result |
| --- | --- |
| B1 | binds |
| B2 | binds |
